Assay results as given in publication PMC11584738.

Biological target: His-GST-TRP (without signal peptide) (Verticillium dahliae strain V991)
Experiment: MST

Kd: 1790 nM
Substance: GST-CTL1 (without signal peptide) (natural protein)
